Laboratory results reported in patent US20120135923A1 (IPSEN PHARMA S A S, published 2012).
Bridge positions count the residues as written; N and C are the ends. Square brackets hold non-standard residues; d marks the D form. Ends that are not written are not given here. 1Nal = N[C@@H](Cc1cccc2ccccc12)C(=O)O; d2Nal = N[C@H](Cc1ccc2ccccc2c1)C(=O)O; Bta = N[C@@H](Cc1csc2ccccc12)C(=O)O; Aic = NC1(C(=O)O)Cc2ccccc2C1; Pen = CC(C)(S)[C@H](N)C(=O)O; Ac6c = NC1(C(=O)O)CCCCC1; Nle = CCCC[C@H](N)C(=O)O; Ac3c = NC1(C(=O)O)CC1; Aib = CC(C)(N)C(=O)O; GABA = NCCCC(=O)O; βAla = NCCC(=O)O

Experiments:
[1] = molecular target: T1, human melanocortin receptor subtype 1 (hMC1-R) (human, UniProt Q01726 1-317); experiment: [125I]-NDP-α-MSH competition, membranes
T1 construct: whole, on cells; membranes of CHO-K1 cells

[2] = molecular target: T2, human melanocortin receptor subtype 3 (hMC3-R) (human, UniProt P41968 1-323); experiment: [125I]-NDP-α-MSH competition, membranes
T2 construct: whole, on cells; membranes of CHO-K1 cells

[3] = molecular target: T3, human melanocortin receptor subtype 4 (hMC4-R) (human, UniProt P32245 1-332); experiment: [125I]-NDP-α-MSH competition, membranes
T3 construct: whole, on cells; membranes of CHO-K1 cells

[4] = molecular target: T4, human melanocortin receptor subtype 5 (hMC5-R) (human, UniProt P33032 1-325); experiment: [125I]-NDP-α-MSH competition, membranes
T4 construct: whole, on cells; membranes of CHO-K1 cells

hMC1-R [5] = molecular target: T5, hMC1-R (human, UniProt Q01726 1-317); experiment: ratio Ki hMC1-R / Ki hMC4-R, same assay
T5 construct: whole, on cells; Assayed as membranes of CHO-K1 cells expressing the receptor; also called hMC-R receptor subtype 1; melanocyte-specific receptor (MC1-R)
Procedure: (§1) Cellular membranes used for the in vitro receptor binding assays were obtained from transgenic CHO-K1 cells stably expressing hMC-R receptor subtypes 1, 3, 4 or 5. […] The pellets were resuspended in the same buffer and centrifuged at 50,000 g for 10 minutes at approximately 4° C. The washed pellets containing the cellular membranes were stored at approximately −80° C.
(§2) Competitive inhibition of [¹²⁵I](Tyr²)-(Nle⁴-D-Phe⁷)α-MSH ([¹²⁵I]-NDP-α-MSH, Amersham Biosciences®) binding was carried out in polypropylene 96 well plates. Cell membranes (1-10 μg protein/well) prepared as described above were incubated in 50 mM Tris-HCl at pH 7.4 containing 0.2% bovine serum albumin (BSA), 5 mM MgCl₂, 1 mM CaCl₂ and 0.1 mg/mL bacitracin, with increasing concentrations of the test compound and 0.1-0.3 nM […] for approximately 90-120 minutes at approximately 37° C. Bound [¹²⁵I]-NDP-α-MSH ligand was separated from free [¹²⁵I]-NDP-α-MSH by filtration through GF/C glass fiber filter plates (Unifilter®; Packard) presoaked with 0.1% (w/v) polyethylenimine (PEI), using a Packard Filtermate® harvester. Filters were washed three times with 50 mM Tris-HCl at pH 7.4 at a temperature of approximately 0-4° C. and then assayed for radioactivity using a Packard Topcount® scintillation counter. Binding data were analyzed by computer-assisted non-linear regression analysis (XL fit; IDBS).

hMC1-R [6] = molecular target: T5, hMC1-R; experiment: competition with [125I]-NDP-α-MSH, CHO-K1 membranes
Procedure: as §1, §2

hMC3-R = molecular target: T6, hMC3-R (human, UniProt P41968 1-323); experiment: as above
T6 construct: whole, on cells; Assayed as membranes of CHO-K1 cells expressing the receptor; also called hMC-R receptor subtype 3; melacortin-3 (MC3-R)
Procedure: as §1, §2

hMC4-R = molecular target: T7, hMC4-R (human, UniProt P32245 1-332); experiment: as above
T7 construct: whole, on cells; Assayed as membranes of CHO-K1 cells expressing the receptor; also called hMC-R receptor subtype 4; melanocortin-4 (MC4-R)
Procedure: as §1, §2

hMC5-R = molecular target: T8, hMC5-R (human, UniProt P33032 1-325); experiment: as above
T8 construct: whole, on cells; Assayed as membranes of CHO-K1 cells expressing the receptor; also called hMC-R receptor subtype 5; melanocortin-5 receptor (MC5-R)
Procedure: as §1, §2

T3 sequence (P32245 whole entry): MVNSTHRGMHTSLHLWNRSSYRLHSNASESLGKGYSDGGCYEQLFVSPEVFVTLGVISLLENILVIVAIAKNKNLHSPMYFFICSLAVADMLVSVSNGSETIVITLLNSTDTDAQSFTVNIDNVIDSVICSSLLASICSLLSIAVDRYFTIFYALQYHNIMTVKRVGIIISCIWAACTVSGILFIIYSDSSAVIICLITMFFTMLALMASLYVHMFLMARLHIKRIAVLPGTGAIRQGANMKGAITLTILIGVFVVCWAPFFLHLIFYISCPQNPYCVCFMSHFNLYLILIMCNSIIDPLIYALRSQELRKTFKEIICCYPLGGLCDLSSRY
T7 sequence (P32245 whole entry): as above
T2 sequence (P41968 whole entry): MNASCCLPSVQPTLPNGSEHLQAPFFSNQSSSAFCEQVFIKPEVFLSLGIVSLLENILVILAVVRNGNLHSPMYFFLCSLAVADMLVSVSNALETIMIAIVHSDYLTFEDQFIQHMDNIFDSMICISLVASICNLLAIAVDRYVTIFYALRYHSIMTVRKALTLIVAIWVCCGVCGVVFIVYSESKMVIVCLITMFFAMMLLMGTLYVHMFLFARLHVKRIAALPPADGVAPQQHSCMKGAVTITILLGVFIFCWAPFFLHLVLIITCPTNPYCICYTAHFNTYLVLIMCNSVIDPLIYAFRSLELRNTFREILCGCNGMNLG
T6 sequence (P41968 whole entry): as above
T4 sequence (P33032 whole entry): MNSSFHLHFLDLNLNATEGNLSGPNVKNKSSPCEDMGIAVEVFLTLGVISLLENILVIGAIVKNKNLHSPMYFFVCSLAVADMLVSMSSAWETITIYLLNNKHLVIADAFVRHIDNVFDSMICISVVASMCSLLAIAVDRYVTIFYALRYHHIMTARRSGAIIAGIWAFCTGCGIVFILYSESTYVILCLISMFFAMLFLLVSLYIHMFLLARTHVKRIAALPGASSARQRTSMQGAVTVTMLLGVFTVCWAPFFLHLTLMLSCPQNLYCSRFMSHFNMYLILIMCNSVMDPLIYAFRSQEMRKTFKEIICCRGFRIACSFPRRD
T8 sequence (P33032 whole entry): as above
T1 sequence (Q01726 whole entry): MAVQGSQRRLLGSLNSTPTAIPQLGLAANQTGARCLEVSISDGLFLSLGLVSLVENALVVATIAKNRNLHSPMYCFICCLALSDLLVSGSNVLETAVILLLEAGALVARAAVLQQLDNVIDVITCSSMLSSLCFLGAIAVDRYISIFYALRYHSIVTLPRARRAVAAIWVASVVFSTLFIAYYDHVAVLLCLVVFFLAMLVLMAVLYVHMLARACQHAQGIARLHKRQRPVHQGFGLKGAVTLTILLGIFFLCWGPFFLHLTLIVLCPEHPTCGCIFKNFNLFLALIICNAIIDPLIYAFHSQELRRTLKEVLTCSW
T5 sequence (Q01726 whole entry): as above

Binder	Ki [1]	Ki [2]	Ki [3]	Ki [4]	Ki hMC1-R/MC4-R (hMC1-R [5])	Ki (hMC1-R [6])	Ki (hMC3-R)	Ki (hMC4-R)	Ki (hMC5-R)
CEHXRXACPPKDXYGRKKRRQRRR (N-terminal Ac; D-2-Nal at 4; 1-Nal at 6; β-Ala at 13; disulfide Cys1-Cys8; C-terminal NH2)	4.59 nM	6.28 nM	0.588 nM	22.6 nM	–	–	–	–	–
Ac-CEH[d2Nal]R[1Nal]ACPPKD[βAla]RRRRRQRRR-NH2 (disulfide 1-8) [Ac-c(Cys-Glu-His-D-2-Nal-Arg-1-Nal-Ala-Cys)-Pro-Pro-Lys-Asp-β-[…]NH2]	2.42 nM	6.56 nM	0.238 nM	41.7 nM	–	–	–	–	–
Ac-[dR]CH[dF]RW[GABA][Pen]-NH2 (disulfide 2-8; SMILES CC(=O)N[C@H](CCCNC(=N)N)C(=O)N[C@H]1CSSC(C)(C)[C@@H](C(N)=O)NC(=O)CCCNC(=O)[C@H](Cc2c[nH]c3ccccc23)NC(=O)[C@H](CCCNC(=N)N)NC(=O)[C@@H](Cc2ccccc2)NC(=O)[C@H](Cc2c[nH]cn2)NC1=O) [Ac-D-Arg-c(Cys-His-D-Phe-Arg-Trp-Gaba-Pen)-NH2]	–	–	–	–	0.36	3.93 nM	172 nM	11 nM	538 nM
GCEH[dF]RWC-NH2 (disulfide 2-8; also: hydantoin ring from C(O) with Gly1-Cys2) [c[Hydantoin(C(O)-(Gly-Cys))-Glu-His-D-Phe-Arg-Trp-Cys]-NH2]	15.6 nM	305 nM	8.92 nM	3070 nM	–	–	–	–	–
Ac-[Nle]C[dA]H[dF]RWAC-NH2 (disulfide 2-9) [Ac-Nle-c(Cys-D-Ala-His-D-Phe-Arg-Trp-Ala-Cys)-NH2]	–	–	–	–	0.41	9.12 nM	1130 nM	22.1 nM	2860 nM
Ac-FCH[dF]RW[GABA]C-NH2 (disulfide 2-8) [Ac-Phe-c(Cys-His-D-Phe-Arg-Trp-Gaba-Cys)-NH2]	–	–	–	–	0.12	–	–	–	–
Ac-CEH[d2Nal]R[Bta]ACPPKD[βAla]GRKRRRQRRR-NH2 (disulfide 1-8; SMILES CC(=O)N[C@H]1CSSC[C@@H](C(=O)N2CCC[C@H]2C(=O)N2CCC[C@H]2C(=O)N[C@@H](CCCCN)C(=O)N[C@@H](CC(=O)O)C(=O)NCCC(=O)NCC(=O)N[C@@H](CCCNC(=N)N)C(=O)N[C@@H](CCCCN)C(=O)N[C@@H](CCCNC(=N)N)C(=O)N[C@@H](CCCNC(=N)N)C(=O)N[C@@H](CCCNC(=N)N)C(=O)N[C@@H](CCC(N)=O)C(=O)N[C@@H](CCCNC(=N)N)C(=O)N[C@@H](CCCNC(=N)N)C(=O)N[C@@H](CCCNC(=N)N)C(N)=O)NC(=O)[C@H](C)NC(=O)[C@H](Cc2csc3ccccc23)NC(=O)[C@H](CCCNC(=N)N)NC(=O)[C@@H](Cc2ccc3ccccc3c2)NC(=O)[C@H](Cc2c[nH]cn2)NC(=O)[C@H](CCC(=O)O)NC1=O) [Ac-c(Cys-Glu-His-D-2-Nal-Arg-Bal-Ala-Cys)-Pro-Pro-Lys-Asp-β-[…]NH2]	4.29 nM	2.15 nM	0.425 nM	15.5 nM	–	–	–	–	–
Ac-CEH[d2Nal]R[Bta]ACPPKD[βAla]Y[Aib]RKKRRQRRR-NH2 (disulfide 1-8; SMILES CC(=O)N[C@H]1CSSC[C@@H](C(=O)N2CCC[C@H]2C(=O)N2CCC[C@H]2C(=O)N[C@@H](CCCCN)C(=O)N[C@@H](CC(=O)O)C(=O)NCCC(=O)N[C@@H](Cc2ccc(O)cc2)C(=O)NC(C)(C)C(=O)N[C@@H](CCCNC(=N)N)C(=O)N[C@@H](CCCCN)C(=O)N[C@@H](CCCCN)C(=O)N[C@@H](CCCNC(=N)N)C(=O)N[C@@H](CCCNC(=N)N)C(=O)N[C@@H](CCC(N)=O)C(=O)N[C@@H](CCCNC(=N)N)C(=O)N[C@@H](CCCNC(=N)N)C(=O)N[C@@H](CCCNC(=N)N)C(N)=O)NC(=O)[C@H](C)NC(=O)[C@H](Cc2csc3ccccc23)NC(=O)[C@H](CCCNC(=N)N)NC(=O)[C@@H](Cc2ccc3ccccc3c2)NC(=O)[C@H](Cc2c[nH]cn2)NC(=O)[C@H](CCC(=O)O)NC1=O)	7.84 nM	10.2 nM	0.783 nM	91.8 nM	–	–	–	–	–
D[Aic][d2Nal]RWK-NH2 (lactam 1-6; also: hydantoin ring: N-terminal N of Asp1 and backbone N of residue 2 bridged by one C(O), bridge at N via C(O), other end not in the chain) [c[Hydantoin(C(O)-(Asp-Aic))-D-2-Nal-Arg-Trp-Lys]-NH2]	9030 nM	2630 nM	35.8 nM	1160 nM	–	–	–	–	–
D[Ac3c][d2Nal]RWK-NH2 (lactam 1-6; also: hydantoin ring: N-terminal N of Asp1 and backbone N of residue 2 bridged by one C(O), bridge at N via C(O), other end not in the chain) [c[Hydantoin(C(O)-(Asp-A3c))-D-2-Nal-Arg-Trp-Lys]-NH2]	7570 nM	1920 nM	420 nM	2880 nM	–	–	–	–	–
Ac-[Nle]CH[dF]R[dW][βAla]C-NH2 (disulfide 2-8; SMILES CCCC[C@H](NC(C)=O)C(=O)N[C@H]1CSSC[C@@H](C(N)=O)NC(=O)CCNC(=O)[C@@H](Cc2c[nH]c3ccccc23)NC(=O)[C@H](CCCNC(=N)N)NC(=O)[C@@H](Cc2ccccc2)NC(=O)[C@H](Cc2c[nH]cn2)NC1=O) [Ac-Nle-c(Cys-His-D-Phe-Arg-D-Trp-β-Ala-Cys)-NH2]	–	–	–	–	0.16	0.323 nM	14.1 nM	1.96 nM	24 nM
XCAHFRWCXXYGRKKRRQRRR (N-terminal Ac; Nle at 1; D-Ala at 3; D-Phe at 5; Doc at 9 and 10; disulfide Cys2-Cys8; C-terminal NH2) [Ac-Nle-c(Cys-D-Ala-His-D-Phe-Arg-Trp-Cys)-(Doc)2-Tyr-Gly-Arg-Lys-Lys-Arg-Arg-Gln-Arg-Arg-Arg-NH2]	0.211 nM	0.665 nM	0.635 nM	118 nM	–	–	–	–	–
FCH[dF]RW[GABA]C-NH2 (disulfide 2-8; N-terminus assumed; SMILES N=C(N)NCCC[C@@H]1NC(=O)[C@@H](Cc2ccccc2)NC(=O)[C@H](Cc2c[nH]cn2)NC(=O)[C@@H](NC(=O)[C@@H](N)Cc2ccccc2)CSSC[C@@H](C(N)=O)NC(=O)CCCNC(=O)[C@H](Cc2c[nH]c3ccccc23)NC1=O) [Phe-c(Cys-His-D-Phe-Arg-Trp-Gaba-Cys)-NH2]	–	–	–	–	0.04	0.186 nM	–	4.93 nM	0.537 nM
CEHXRXACPPKDXYGRKKRRQRRR (N-terminal Ac; D-2-Nal at 4; Bal at 6; β-Ala at 13; disulfide Cys1-Cys8; C-terminal NH2)	6.46 nM	5.22 nM	0.38 nM	15.3 nM	–	–	–	–	–
Ac-C[dA]H[dF]RWAC-NH2 (disulfide 1-8) [Ac-c(Cys-D-Ala-His-D-Phe-Arg-Trp-Ala-Cys)-NH2]	–	–	–	–	2.06	199 nM	5990 nM	96.7 nM	–
D[Ac6c][d2Nal]RWK-NH2 (lactam 1-6; also: hydantoin ring: N-terminal N of Asp1 and backbone N of residue 2 bridged by one C(O), bridge at N via C(O), other end not in the chain) [c[Hydantoin(C(O)-(Asp-A6c))-D-2-Nal-Arg-Trp-Lys]-NH2]	2170 nM	1480 nM	16.5 nM	451 nM	–	–	–	–	–
